Here are results for 31 molecules from article PMC2596764 (Nature immunology, 2008).

Where two headings read alike, the source gives them in different places. Non-standard residues stand in square brackets, D forms with d. Residues, ends and D or L forms follow the SMILES beside them. No end group written: not given here. pS = N[C@@H](COP(=O)(O)O)C(=O)O

Usually IC50 stands for the concentration that gives 50% inhibition. A higher IC50 goes with lower potency.

One assay has as its target HLA-A2 (Homo sapiens, UniProt P04439, D140Y/D185E/D98H/E176V/E277Q/G131W/G231S/I119V/I121R/I166T/I218V/L300P/L318F/N151K/N90K/P208A/P217A/Q86G/Q94H/R138H/R169H/T345S). The assay is described as follows: Competitive peptide binding assay to purified HLA-A2.
For assay [1], the target named is HLA-A2-R65A (Ala substitution for Arg65) (Homo sapiens, UniProt P04439, D140Y/D185E/D98H/E176V/E277Q/G131W/G231S/I119V/I121R/I166T/I218V/N151K/N90K/P208A/P217A/Q86G/Q94H/R138H/R169H). The assay can be described thus: Competitive peptide binding assay to mutant HLA-A2-R65A.
Assay [2] concerns the target HLA-A*0201 (HLA-A2) heavy chain refolded with β2-microglobulin. The assay is described as follows: radioligand binding.
Assay [3] has as its target HLA-A2-R65A heavy chain refolded with β2-microglobulin. The assay can be described thus: radioligand binding.
Assay [4] concerns the target HLA-A*0201 (HLA-A2) heavy chain refolded with β2-microglobulin. The assay is described as follows: radioligand binding. This is another data set of the same source.
Assay [5] addresses HLA-A2-R65A heavy chain refolded with β2-microglobulin. The assay can be described thus: radioligand binding. The source holds these as a separate data set.

With `CC[C@H](C)[C@H](NC(=O)[C@H](CO)NC(=O)[C@H](C)NC(=O)[C@H](CCC(N)=O)NC(=O)[C@@H](N)CCCNC(=N)N)C(=O)N[C@@H](CCC(=O)O)C(=O)N[C@@H](CC(C)C)C(=O)N1CCC[C@H]1C(=O)N[C@@H](CO)C(=O)N[C@@H](CCSC)C(=O)O` (H-RQASIELPSM-OH), the IC50 was found to be 1770 nM on HLA-A2 and 2140 nM in assay [1].
On HLA-A2, `CSCC[C@H](NC(=O)[C@@H]1CCCN1C(=O)CNC(=O)[C@H](COP(=O)(O)O)NC(=O)[C@H](Cc1ccc(O)cc1)NC(=O)[C@@H](NC(=O)[C@@H](N)CCCNC(=N)N)[C@@H](C)O)C(=O)N[C@@H](CC(N)=O)C(=O)N[C@@H](CCCCN)C(=O)N[C@H](C(=O)O)C(C)C` [RTYpSGPMNKV] (H-RTY[pS]GPMNKV-OH) displayed a half-inhibitory concentration (IC50) of 117 nM.
`CC[C@H](C)[C@H](NC(=O)[C@H](COP(=O)(O)O)NC(=O)[C@H](C)NC(=O)[C@H](CCC(N)=O)NC(=O)[C@@H](N)CCCNC(=N)N)C(=O)N[C@@H](CCC(=O)O)C(=O)N[C@@H](CC(C)C)C(=O)N1CCC[C@H]1C(=O)N[C@@H](CO)C(=O)N[C@@H](CCSC)C(=O)O` [RQApSIELPSM] (H-RQA[pS]IELPSM-OH): the values for the IC50 (at HLA-A2; in assay [1]) were 11.2 nM and 20 nM, respectively.
For `CC[C@H](C)[C@H](NC(=O)[C@H](COP(=O)(O)O)NC(=O)[C@H](C)NC(=O)[C@H](CCC(N)=O)NC(=O)[C@H](C)N)C(=O)N[C@@H](CCC(=O)O)C(=O)N[C@@H](CC(C)C)C(=O)N1CCC[C@H]1C(=O)N[C@@H](CO)C(=O)N[C@@H](CCSC)C(=O)O` [AQApSIELPSM] the same measures were 58.7 nM and 972 nM.
As to `CC[C@H](C)[C@H](NC(=O)[C@H](CO)NC(=O)[C@H](C)NC(=O)[C@H](CCC(N)=O)NC(=O)[C@H](C)N)C(=O)N[C@@H](CCC(=O)O)C(=O)N[C@@H](CC(C)C)C(=O)N1CCC[C@H]1C(=O)N[C@@H](CO)C(=O)N[C@@H](CCSC)C(=O)O`, the IC50 on HLA-A2 was 1180 nM; in assay [1], 1060 nM.
Molecule `CC[C@H](C)[C@H](NC(=O)[C@H](CO)NC(=O)[C@H](CC(C)C)NC(=O)[C@H](COP(=O)(O)O)NC(=O)[C@H](C)NC(=O)[C@H](CCC(N)=O)NC(=O)[C@@H](N)CCCNC(=N)N)C(=O)N[C@@H](CO)C(=O)N[C@H](C(=O)O)C(C)C` [RQApSLSISV] (H-RQA[pS]LSISV-OH) yielded an IC50 at HLA-A2 of 38.5 nM.
The same measure, in the same setting: the value for `CSCC[C@H](NC(=O)[C@H](CC(=O)O)NC(=O)[C@H](CC(C)C)NC(=O)[C@H](Cc1ccccc1)NC(=O)[C@H](COP(=O)(O)O)NC(=O)[C@H](CC(=O)O)NC(=O)[C@H](CCSC)NC(=O)[C@@H](N)CCCCN)C(=O)N[C@@H](CCC(N)=O)C(=O)N[C@@H](CC(C)C)C(=O)O` [KMDpSFLDMQL] (H-KMD[pS]FLDMQL-OH) was 3.4 nM; that for `CC(C)[C@H](NC(=O)CNC(=O)[C@H](CO)NC(=O)[C@@H](NC(=O)[C@@H]1CCCN1C(=O)[C@H](COP(=O)(O)O)NC(=O)[C@H](C)NC(=O)[C@@H](NC(=O)[C@@H](N)CCCNC(=N)N)C(C)C)[C@@H](C)O)C(=O)O` [RVApSPTSGV] (H-RVA[pS]PTSGV-OH) was 178 nM.
On the same count and under the same terms, to `CC(C)C[C@H](NC(=O)CN)C(=O)N[C@@H](CC(C)C)C(=O)NCC(=O)N[C@@H](COP(=O)(O)O)C(=O)N1CCC[C@H]1C(=O)N[C@H](C(=O)N[C@@H](CCCNC(=N)N)C(=O)N[C@@H](C)C(=O)O)C(C)C` [GLLGpSPVRA] (H-GLLG[pS]PVRA-OH) belongs 169 nM.
At HLA-A2, `CC[C@H](C)[C@H](NC(=O)CNC(=O)[C@H](COP(=O)(O)O)NC(=O)[C@H](CC(=O)O)NC(=O)[C@H](CC(C)C)NC(=O)[C@@H](N)Cc1ccc(O)cc1)C(=O)N[C@@H](Cc1c[nH]cn1)C(=O)N[C@@H](CO)C(=O)NCC(=O)N[C@@H](C)C(=O)O` [YLDpSGIHSGA] (H-YLD[pS]GIHSGA-OH) yielded an IC50 of 146 nM.
For the molecule AQApSIELPSM (peptide), the 50% inhibitory concentration (IC50) in assay [2] was 58.7 nM; in assay [3], 972 nM.
On HLA-A2, `CC[C@H](C)[C@H](NC(=O)[C@H](CC(C)C)NC(=O)[C@@H](N)CCCCN)C(=O)N[C@@H](CC(=O)O)C(=O)N[C@@H](CCCNC(=N)N)C(=O)N[C@H](C(=O)N[C@@H](CCC(=O)O)C(=O)N[C@@H](COP(=O)(O)O)C(=O)N[C@@H](CC(C)C)C(=O)O)[C@@H](C)O` [KLIDRTEpSL] (H-KLIDRTE[pS]L-OH) yielded an IC50 of 62.4 nM. This lies in the double-digit nanomolar range.
The molecule `CC(C)C[C@H](NC(=O)CNC(=O)[C@H](Cc1ccc(O)cc1)NC(=O)[C@@H](NC(=O)[C@@H]1CCCN1C(=O)[C@H](COP(=O)(O)O)NC(=O)[C@H](Cc1ccccc1)NC(=O)[C@@H](NC(=O)[C@@H](N)CCCNC(=N)N)[C@@H](C)O)[C@@H](C)O)C(=O)O` [RTFpSPTYGL] (H-RTF[pS]PTYGL-OH) gave an IC50 on HLA-A2 of 32.5 nM.
As to `CC[C@H](C)[C@H](NC(=O)[C@H](CO)NC(=O)[C@H](C)NC(=O)[C@H](CC(C)C)NC(=O)[C@@H](N)CCCNC(=N)N)C(=O)N[C@@H](CCC(=O)O)C(=O)N[C@@H](CC(C)C)C(=O)N1CCC[C@H]1C(=O)N[C@@H](CO)C(=O)N[C@H](C(=O)O)C(C)C` (H-RLASIELPSV-OH), the half-maximal inhibitory concentration (IC50) at HLA-A2 was 0.9 nM. Compared with the last molecule, the IC50 is about 36-fold lower.
For the molecule RVASPTSGV (not fully specified) [… (non-phosphorylated counterpart of RVApSPTSGV)], in assay [4], the IC50 worked out at 731 nM.
YLD[pS]GIHSGA [YLDpSGIHSGA]: the IC50 in assay [4] was 146 nM. This IC50 is about 5-fold lower than that of the molecule before.
Regarding GLLGSPVRA (not fully specified) [… (non-phosphorylated counterpart of GLLGpSPVRA)], in assay [4], the concentration for half-maximal inhibition (IC50) was determined as 219 nM.
KMDSFLDMQL (not fully specified) [… (non-phosphorylated counterpart of KMDpSFLDMQL)] displayed a half-inhibitory concentration (IC50) in assay [4] of 11.4 nM.
RTFSPTYGL (not fully specified) [… (non-phosphorylated counterpart of RTFpSPTYGL)] showed an IC50 in assay [4] of 408 nM.
For the molecule KLIDRTE[pS]L [KLIDRTEpSL], the 50% inhibitory concentration (IC50) in assay [4] was 62.4 nM.
GLLG[pS]PVRA [GLLGpSPVRA] returned an IC50 in assay [4] of 169 nM.
In assay [4], RTF[pS]PTYGL [RTFpSPTYGL] gave a 50% inhibitory concentration (IC50) of 32.5 nM. Against the preceding molecule, the IC50 is about 5.2-fold lower.
On to KLIDRTESL (not fully specified) [… (non-phosphorylated counterpart of KLIDRTEpSL)], for which the IC50 in assay [4] amounted to 102 nM. Compared with the last molecule, the IC50 is about 3.1-fold higher.
In assay [4], RVA[pS]PTSGV [RVApSPTSGV] returned a 50% inhibitory concentration (IC50) of 178 nM.
Consider RQA[pS]IELPSM [RQApSIELPSM], for which the IC50 in assay [4] is 11.2 nM; in assay [5], 20 nM.
The molecule YLDSGIHSGA (not fully specified) [… (non-phosphorylated counterpart of YLDpSGIHSGA)] showed an IC50 in assay [4] of 83.5 nM.
Molecule RTYSGPMNKV (not fully specified) [… (non-phosphorylated counterpart of RTYpSGPMNKV)] came in with an IC50 in assay [4] of 793 nM.
On to RQA[pS]LSISV [RQApSLSISV], for which the IC50 in assay [4] worked out at 38.5 nM. Against the preceding molecule, the IC50 is about 21-fold lower.
Same read-out and setting: to RQASLSISV (not fully specified) [… (non-phosphorylated counterpart of RQApSLSISV)] belongs 284 nM; to KMD[pS]FLDMQL [KMDpSFLDMQL], 3.4 nM; to RTY[pS]GPMNKV [RTYpSGPMNKV], 117 nM.
